Data from the DeepSol protein solubility set.

Experiment: soluble on expression in E. coli; label from the status in PepcDB or PDB records

Sequence | soluble on expression in E. coli
MEFAAENEGKSGGGLHSVAEGVRLSPEPGREGVRDLAGAEEFGGGEEGTGLTGIKEIGDGEEGSGQRPEEIPMDLTVVKQEIIDWPGTEGRLAGQWVEQEVEDRPEVKDENAGVLEVKQETDSSLVVKEAKVGEPEVKEEKVKEEVMDWSEVKEEKDNLEIKQEEKFVGQCIKEELMHGECVKEEKDFLKKEIVDDTKVKEEPPINHPVGCKRKLAMSRCETCGTEEAKYRCPRCMRYSCSLPCVKKHKAELTCNGVRDKTAYISIQQFTEMNLLSDYRFLEDVARTADHISRDAFLKRPISNKYMYFMKNRARRQGINLKLLPNGFTKRKENSTFFDKKKQQFCWHVKLQFPQSQAEYIEKRVPDDKTINEILKPYIDPEKSDPVIRQRLKAYIRSQTGVQILMKIEYMQQNLVRYYELDPYKSLLDNLRNKVIIEYPTLHVVLKGSNNDMKVLHQVKSESTKNVGNEN | soluble
MEFFGETWRRELAAEFEKPYFKQLMSFVADERSRHTVYPPADQVYSWTEMCDIQDVKVVILGQDPYHGPNQAHGLCFSVQKPVPPPPSLVNIYKELCTDIDGFKHPGHGDLSGWAKQGVLLLNAVLTVRAHQANSHKDRGWETFTDAVIKWLSVNREGVVFLLWGSYAHKKGATIDRKRHHVLQAVHPSPLSAHRGFLGCKHFSKANGLLKLSGTEPINWRAL | soluble
MEFMRVERVLLKDYTTLGVGGPAELWTVETREELKRATEAPYRVLGNGSNLLVLDEGVPERVIRLAGEFQTYDLKGWVGAGTLLPLLVQEAARAGLSGLEGLLGIPAQVGGAVKMNAGTRFGEMADALEAVEVFHDGAFHVYCPEELGFGYRKSHLPPGGIVTRVRLKLKERPKEEILRRMAEVDRARKGQPKRKSAGCAFKNPPGQSAGRLIDERGLKGLRVGDAMISLEHGNFIVNLGQARAKDVLELVRRVQEELPLELEWEVWP | soluble
MEFNKLQLSHCISFYISDVSEVFFESINQHPSRDFVNNILQKIKSTLSEEELEKLNTIEEVTKDEKILIMLNHVLKKIVSKTGSSSCDLFQIVKHDRFNEPVYIQSVNAFENNLINNEFAERRYDYLIEINKHSYLRKYVNAIRISFFLDLRAQILSGSFTLDVINKQLEHQNKEELFQAIYLRSLIKHFISNQLYPISLNSFIFGDKNRENKTVENDKLSVLKNNWNQIFFSKYFDFVAKNKEERVVDNNCD | not soluble
MEFRRKCSRSAMRHKSQKRRAMPNQDVEKVNEIFKFPRISEQALMDGILKISCIASFKNGNQRCFEGSIYVKELCGLRNGTKVFKFIELANIRLYSIDEEDEIPEYDWIISV | not soluble
MEFSIKQSPLSVQSVVKCIKMKQAPEILGSANGKTPSCEVNRECSVFLSKAQLSSSLQEGVMQKFNGHDALPFIPADKLKDLTSRVFNGEPGAHDAKLRFESQEMKGIGTPPNTTPIKNGSPEIKLKITKTYMNGKPLFESSICGDSAADVSQSEENGQKPENKARRNRKRSIKYDSLLEQGLVEAALVSKISSPSDKKIPAKKESCPNTGRDKDHLLKYNVGDLVWSKVSGYPWWPCMVSADPLLHSYTKLKGQKKSARQYHVQFFGDAPERAWIFEKSLVAFEGEGQFEKLCQESAKQAPTKAEKIKLLKPISGKLRAQWEMGIVQAEEAASMSVEERKAKFTFLYVGDQLHLNPQVAKEAGIAAESLGEMAESSGVSEEAAENPKSVREECIPMKRRRRAKLCSSAETLESHPDIGKSTPQKTAEADPRRGVGSPPGRKKTTVSMPRSRKGDAASQFLVFCQKHRDEVVAEHPDASGEEIEELLRSQWSLLSEKQRARYNTKFALVAPVQAEEDSGNVNGKKRNHTKRIQDPTEDAEAEDTPRKRLRTDKHSLRKRDTITDKTARTSSYKAMEAASSLKSQAATKNLSDACKPLKKRNRASTAASSALGFSKSSSPSASLTENELLWEPTPVKLDLNPAALYCT | soluble
MEGFSLNQDRGSMQDALKQYKHGLGTFEQKMPLMGRKFNEFTEQCFAGNSLTEREKQLIALGIAINAQDEYCMIYHTKGCLDQGASEENILEAVSVAAAFGGGAAFSQGVTVVQQCIEEFGNTTH | soluble
